Changes are numbered by the printed parent chain. Numbers in names are those of the source. Read-outs that look alike come from different tables or passages of the source.
Assays:
[1] = target: Campylobacter sp. FOBRC14 isocitrate dehydrogenase (Campylobacter sp. FOBRC14); test: SEC; Superdex 200 10/300 column, 0.05 M potassium phosphate pH 7.0, 0.15 M NaCl, 0.01% sodium azide, flow 0.5 ml/min; mass estimated against protein standards
[2] = system: NC(=O)c1ccc[n+]([C@@H]2O[C@H](COP(=O)(O)OP(=O)(O)OC[C@H]3O[C@@H](n4cnc5c(N)ncnc54)[C@H](O)[C@@H]3O)[C@@H](O)[C@H]2O)c1; test: purified protein; conditions: 1.0 mM isocitrate fixed, 35 mM Tris-HCl pH 7.5, 2 mM MgCl2 or MnCl2, 25°C, varied: cofactor
[3] = system: NC(=O)c1ccc[n+]([C@@H]2O[C@H](COP(=O)(O)OP(=O)(O)OC[C@H]3O[C@@H](n4cnc5c(N)ncnc54)[C@H](OP(=O)(O)O)[C@@H]3O)[C@@H](O)[C@H]2O)c1; test: purified protein; conditions: 1.0 mM isocitrate fixed, 35 mM Tris-HCl pH 7.5, 2 mM MgCl2 or MnCl2, 25°C, varied: cofactor
CaIDH [4] = system: T1, CaIDH; conditions: read-out: NADP^+ / Km; 1.0 mM isocitrate fixed; 35 mM Tris-HCl pH 7.5, 2 mM MgCl2 or MnCl2, 25°C; Methods print the second mutation as Asp594Arg
T1 construct: gene IDH

CaIDH [5] = system: T1, CaIDH; conditions: read-out: NAD^+ / Km; 1.0 mM isocitrate fixed; 35 mM Tris-HCl pH 7.5, 2 mM MgCl2 or MnCl2, 25°C; Methods print the second mutation as Asp594Arg
[6] = target: Ostreococcus lucimarinus CCE9901 isocitrate dehydrogenase (Ostreococcus lucimarinus CCE9901); test: MALDI-TOF/TOF mass spectrometry; AB SCIEX MALDI TOF-TOF 5800, linear high mass positive-ion mode, SA matrix, TFA as ionization auxiliary reagent
[7] = target: Ostreococcus lucimarinus CCE9901 isocitrate dehydrogenase (Ostreococcus lucimarinus CCE9901); test: SEC; Superdex 200 10/300 column, 0.05 M potassium phosphate pH 7.0, 0.15 M NaCl, 0.01% sodium azide, flow 0.5 ml/min; mass estimated against protein standards
purified protein [8] = substrate: NC(=O)c1ccc[n+]([C@@H]2O[C@H](COP(=O)(O)OP(=O)(O)OC[C@H]3O[C@@H](n4cnc5c(N)ncnc54)[C@H](O)[C@@H]3O)[C@@H](O)[C@H]2O)c1; test: purified protein; format: biochemical, Micromonas commoda; conditions: 1.0 mM isocitrate fixed, 35 mM Tris-HCl pH 7.5, 2 mM MgCl2 or MnCl2, 25°C, varied: cofactor
purified protein [9] = substrate: NC(=O)c1ccc[n+]([C@@H]2O[C@H](COP(=O)(O)OP(=O)(O)OC[C@H]3O[C@@H](n4cnc5c(N)ncnc54)[C@H](OP(=O)(O)O)[C@@H]3O)[C@@H](O)[C@H]2O)c1; test: purified protein; format: biochemical, Micromonas commoda; conditions: 1.0 mM isocitrate fixed, 35 mM Tris-HCl pH 7.5, 2 mM MgCl2 or MnCl2, 25°C, varied: cofactor
purified protein [10] = substrate: NC(=O)c1ccc[n+]([C@@H]2O[C@H](COP(=O)(O)OP(=O)(O)OC[C@H]3O[C@@H](n4cnc5c(N)ncnc54)[C@H](O)[C@@H]3O)[C@@H](O)[C@H]2O)c1; test: purified protein; format: biochemical, Ostreococcus sp. 'lucimarinus'; conditions: 1.0 mM isocitrate fixed, 35 mM Tris-HCl pH 7.5, 2 mM MgCl2 or MnCl2, 25°C, varied: cofactor
purified protein [11] = substrate: NC(=O)c1ccc[n+]([C@@H]2O[C@H](COP(=O)(O)OP(=O)(O)OC[C@H]3O[C@@H](n4cnc5c(N)ncnc54)[C@H](OP(=O)(O)O)[C@@H]3O)[C@@H](O)[C@H]2O)c1; test: purified protein; format: biochemical, Ostreococcus sp. 'lucimarinus'; conditions: 1.0 mM isocitrate fixed, 35 mM Tris-HCl pH 7.5, 2 mM MgCl2 or MnCl2, 25°C, varied: cofactor

Molecule “Campylobacter sp. FOBRC14 isocitrate dehydrogenase (enzyme)” has a fraction eluting as dimer [1] of under 5%.

CaIDH (Campylobacter sp. FOBRC14) was tested, and the Km [2] was 28.9 ± 4.5 µM, the kcat [2] was 7 ± 0.8 s⁻¹ and the kcat/Km [2] was 242000 M⁻¹ s⁻¹. The Km [3] was 513.2 ± 14.9 µM, the kcat [3] was 1.9 ± 0.1 s⁻¹ and the kcat/Km [3] was 4000 M⁻¹ s⁻¹.

For `NC(=O)c1ccc[n+]([C@@H]2O[C@H](COP(=O)(O)OP(=O)(O)OC[C@H]3O[C@@H](n4cnc5c(N)ncnc54)[C@H](OP(=O)(O)O)[C@@H]3O)[C@@H](O)[C@H]2O)c1` [NADP^+], the Km (CaIDH [4]) was 11.4 ± 4.6 µM.

Work on `NC(=O)c1ccc[n+]([C@@H]2O[C@H](COP(=O)(O)OP(=O)(O)OC[C@H]3O[C@@H](n4cnc5c(N)ncnc54)[C@H](O)[C@@H]3O)[C@@H](O)[C@H]2O)c1` [NAD^+] yielded a Km (CaIDH [5]) of 493 ± 52.5 µM.

“Ostreococcus lucimarinus CCE9901 isocitrate dehydrogenase (enzyme)” gave a stoichiometry N [6] of 2 and a stoichiometry N [7] of 2.

B1: MiIDH (Micromonas commoda) (protein)
chain: MAAASAGGKIQAAPMVYVAGEEMTRYTMDLILERWIKPHVDTSAWEFFDLRAKNRDDTEDQVLRDVISAGARLKAIFKEPTITPTADQVKRLGLKKAWGSPNGAMRRGWNGITISRDTIHIDGVELGYKKPVFFERHAVGGEYSAGYKIVGKGKLTTTFVPEAGGEPIVVDDRKITDDLNAVVAYHNPLDNVAHLARIFFGRCLDAGIVPYVVTKKTVFKWQEPFWESMKTVFDAEFKQKFYEKGVMKPGSELVHLLSDAATMKLVVWTDGGFGMAAHNYDGDVLTDELAQVHKSPGFITSNLVGVDDNGTLIKEFEASHGTVTDMDEARLRGEETSLNPLGMVEGLIGAMNHAADVHGGSSGVHPWTGKLRAVIHKLFREGRGTRDLCGAGGLTTEQFIDAVAEEL
notes: full-length synthetic codon-optimised gene in pET-28b(+) NdeI/XhoI, 6xHis-tagged, E. coli Rosetta (DE3); described as homodimeric
Work on B1 yielded a Km (purified protein [8]) of 126 ± 5.3 µM, a kcat (purified protein [8]) of 22.5 ± 2 s⁻¹ and a kcat/Km (purified protein [8]) of 179000 M⁻¹ s⁻¹. It also gave a Km (purified protein [9]) of 1827 ± 42.4 µM, a kcat (purified protein [9]) of 1.4 ± 0.2 s⁻¹ and a kcat/Km (purified protein [9]) of 800 M⁻¹ s⁻¹.

B2: OlIDH (Ostreococcus lucimarinus CCE9901) (protein)
chain: MSANASKITAAPMVYVRGEEMTAYVMDLIRAKWIEPRVDTTAWREFDLRAKNRDDTEDQVLRDVIEAGKAVKAIFKEPTVTPTADQVKRLGLRKSWGSPNGAMRRGWNGITISRDTIHIDGVELGYKKPVFFERHAVGGEYAAGYKNVGKGTLVTTFTPSEGPDAGKPVEVDSRTITDNEAAVVTYHNPYDNVHELARFFFGRCLEAKITPYVVTKKTVFKWQEPFWQIMKKVFDEEYKSKFVDAGVMKSGDELVHLLSDAATMKLVQWRQGGFGMAAHNYDGDVLTDELAQIHKSPGFITSNLVGVDENGTLIKEFEASHGTVADMDEARLRGEETSLNPLGMVEGLIGAMNHAADVHNVDKERTLAFTAKMRAVIHQLFREGKGTRDLSGPSGLTTEQFVDAVAERL
notes: full-length synthetic codon-optimised gene in pET-28b(+) NdeI/XhoI, 6xHis-tagged, E. coli Rosetta (DE3); about 46 kDa subunit, 415 residues as used in CD calculation; homodimer 93 kDa by MALDI
In the case of B2, the Km (purified protein [10]) is reported as 136.6 ± 13.6 µM, the kcat (purified protein [10]) is reported as 60.6 ± 3.8 s⁻¹ and the kcat/Km (purified protein [10]) is reported as 444000 M⁻¹ s⁻¹. The Km (purified protein [11]) was 2211 ± 75 µM, the kcat (purified protein [11]) was 10 ± 1.6 s⁻¹ and the kcat/Km (purified protein [11]) was 4500 M⁻¹ s⁻¹.

B3: OlIDH (Ostreococcus lucimarinus CCE9901; D326R/M327H) (protein)
chain: B2 chain with D326R, M327H
notes: as for B2
Molecule B3 has a Km (purified protein [10]) of 2941.3 ± 75.8 µM, a kcat (purified protein [10]) of 29.1 ± 7.9 s⁻¹ and a kcat/Km (purified protein [10]) of 10000 M⁻¹ s⁻¹. It also gave a Km (purified protein [11]) of 8.2 ± 1.9 µM, a kcat (purified protein [11]) of 1.8 ± 0.2 s⁻¹ and a kcat/Km (purified protein [11]) of 220000 M⁻¹ s⁻¹.

From PMC4360740, “Novel Type II and Monomeric NAD^+ Specific Isocitrate Dehydrogenases: Phylogenetic Affinity, Enzymatic Characterization, and Evolutionary Implication” (Scientific Reports, 2015)
